Results on three molecules are retold here after patent US20240109974A1 (SHANDONG SIMCERE BIOPHARMACEUTICAL, published 2024).

Positions count from the first letter of the chain named.

The target in assay [1] is T1, Human TNFR2-His (Sino 10417-H08H) (human, UniProt P20333 23-257).
T1 construct: Bought protein; also called recombinant human TNFR2 protein; not shown: His tag
T1 sequence (looked up): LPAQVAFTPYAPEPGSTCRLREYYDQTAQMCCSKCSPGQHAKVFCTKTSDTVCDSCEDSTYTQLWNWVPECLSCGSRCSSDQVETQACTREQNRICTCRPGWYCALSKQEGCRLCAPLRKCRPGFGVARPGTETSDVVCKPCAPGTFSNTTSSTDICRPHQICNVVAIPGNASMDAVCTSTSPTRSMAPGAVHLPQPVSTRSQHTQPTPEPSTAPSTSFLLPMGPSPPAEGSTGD
As to the kind of experiment: ELISA, plate coated with Human TNFR2-His, detection with anti-human IgG Fc-HRP [panel C]. As for the experimental part: (§1) The test humanized antibody against TNFR2 (as described in Example 1, the antibody was comprised of variable regions linked to IgG-Fc; the WT chimeric antibody also adopted the IgG-Fc structure) was subjected to 3.33-fold gradient dilution, loaded with 100 μl/well, and incubated with shaking at room temperature for 1.5 hours. The plate was washed, and then a working solution of murine anti-human IgG Fc-HRP (diluted at 1:10000) was added, loaded with 100 μl/well, and incubated with shaking at room temperature for 1.0 hour. The plate was washed again, and then the substrate TMB of HRP was added to develop colour. A stop solution was added to stop the reaction, and then a microplate reader (MD 13) was used to read the absorbance value. The binding curve of an antibody was drawn with antibody concentration as the abscissa and corresponding OD value as the ordinate, and fitted with four parameters (GraphPad Prism9) to calculate the EC50 value. The smaller the EC50 value, the stronger the binding ability of an antibody to human/cynomolgus monkey TNFR2. The binding effect of a humanized antibody was normalized to its corresponding human-murine chimeric antibody WT (see SEQ ID NOs: 38-43 for the sequence). The higher the percentage value, the better the binding effect of the humanized antibody. […]

The target in assay [2] is T2, human TNFR2 on the surface of CHO-TNFR2 cells (human, UniProt P20333 23-461).
T2 construct: whole, on cells
T2 sequence (looked up): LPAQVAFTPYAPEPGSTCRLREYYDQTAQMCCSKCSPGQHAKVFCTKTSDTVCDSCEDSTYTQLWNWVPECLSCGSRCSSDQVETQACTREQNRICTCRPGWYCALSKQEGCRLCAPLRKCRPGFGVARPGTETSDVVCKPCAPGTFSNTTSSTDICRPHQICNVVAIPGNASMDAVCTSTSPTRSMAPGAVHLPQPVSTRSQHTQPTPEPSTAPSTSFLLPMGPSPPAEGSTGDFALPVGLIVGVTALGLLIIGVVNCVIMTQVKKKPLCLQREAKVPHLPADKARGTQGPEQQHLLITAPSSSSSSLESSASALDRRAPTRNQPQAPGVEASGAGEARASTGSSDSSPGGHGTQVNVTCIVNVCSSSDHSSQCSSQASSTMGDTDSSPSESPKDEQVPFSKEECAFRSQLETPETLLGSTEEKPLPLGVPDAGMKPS
The assay can be described thus: flow cytometry competition: antibody titrated on CHO-TNFR2 cells, then human TNFα-biotin, detection with PE-streptavidin [panel A]. As for the experimental part:
CHO stable cells highly expressing human TNFR2 were used for the experiment (the same as CHO-TNFR2 in Example 4). The CHO-TNFR2 cells were digested, washed twice with DPBS, then stained with Live/Dead (L/D) (20 minutes at room temperature), and plated at a density of 1×10⁵ cells/50 μl/well. A test anti-TNFR2 antibody was diluted to 6 μg/ml with a staining buffer as the starting concentration: the antibody was subjected to 3.33-fold gradient dilution, with a total of 7 concentration points. The diluted antibody was added to the plated cells at 50 μl/well, and the mixture was mixed well by gentle pipetting, and incubated at 4° C. for 30 minutes. Then the diluted 100 ng/ml of human TNFα-biotin was added at 100 μl/well, and the mixture was mixed well by gentle pipetting, and then incubated at 4° C. for 30 minutes. The mixture was washed twice with a staining buffer, and then 0.12 μg/ml PE-streptavidin (BioLegend, Cat #405204) was added at 100 μl/well; the resulting mixture was incubated at 4° C. for 30 minutes. The mixture was washed twice with a staining buffer, and then 150 μl of staining buffer was added to resuspend the cells; signals were detected by a flow cytometer (Thermo Attune NxT). […]

Assay [3] has as its target T3, Cynomolgus TNFR2-His (Sino 90102-C08H) (cynomolgus monkey, UniProt A0A2K5VET2 132-366).
T3 construct: Bought protein; also called cynomolgus monkey TNFR2; recombinant cynomolgus monkey TNFR2 protein; not shown: His tag
T3 sequence: T1 sequence (looked up) with S16G, S36P, P117Q, N164H, E210A, S216G, M223V
The assay can be described thus: ELISA, plate coated with Cynomolgus TNFR2-His, detection with anti-human IgG Fc-HRP [panel B]. As for the experimental part:
as §1
Background: An ELISA detects its analyte on a solid surface through an enzyme-linked reagent.

B1: 224-WT (antibody, V domains shown)
VH: EVQLQESGPEIVKPGASVKLSCTASGFNNKDIYMHWVKQRPEQGLEWIGRIDPATGNTKHDPKFQDKATLSSDTSSNTAYLQFSSLTSEDTAVYYCAHSPYGDFGAMDYWGQGTTVTVSS
VL: DIQMTQSPAIMSASLGERVTMTCTASSSVSSNYLHWYQQKPGSSPKLWIYSTSNLPSGVPARFSGSGSGTSYSLTISSMEAEDAATYYCHQYHRSPWTFGGGTKLEIK
notes: Human-murine chimeric wild-type molecule; also called human-murine chimeric antibody WT of #224
For B1, in assay [1], the “EC50 (read off the curve)” value was approximately 10 ng/mL.

B2: 001-WT (antibody, V domains shown)
VH: EVQLQESGGGLVQPGGSLNLSCAASGFAFSTYDLSWVRQTPEKRLEWVAYINNGGISTYYSDTVKGRFTISRDNAKNTLYLQMSSLKSEDTAMYYCVRGPFYGSANYFDYWGQGTTVTVSS
VL: EIVMTQSPASLSLSVGETVTITCRTSESIYSNLPWYQQKQGKSPQLLVYDATKLAEGVPSRFSGSESGTQYSLKINSLQSEDFGTYYCQHFWVTPWTFGGGTKLEIK
notes: Human-murine chimeric wild-type molecule; also called human-murine chimeric antibody WT of #001
For the molecule B2, in assay [2], the “IC50 (read off the curve)” value is approximately 90 ng/mL.

B3: 219-WT (antibody, V domains shown)
VH: EVQLQESGAELVRPGASVKLSCKASGYSFTNYWMNWVKQRPGQGLEWIGMIHPSDTETRLNQNFKDKATLTVDKSSSTSYMQLSSPTSEDSAVYYCARGEGLGAARSVSMDYWGQGTTVTVSS
VL: DILMTQSPSSLSASLGDRVTISCRASQDISNYLNWYQQKPDGTVKVLIYYTAILHSGVPSRFSGSGSGTDYSLTISNLEQEDIATYFCQQGNTLPWTFGGGTKLEIK
notes: Human-murine chimeric wild-type molecule
Turning to B3, the “EC50 (read off the curve)” value in assay [3] is approximately 10 ng/mL.

What is called EC50 (read off the curve) is the concentration that produces a half-maximal response. Low readings indicate greater potency, high ones weaker potency.
